This note sets out measurements from paper doi:10.1101/2020.06.23.166439.

The assay deals with tail tube protein (TTP) gp17.1 of bacteriophage SPP1 (bacteriophage SPP1). The assay can be described thus: cryo-EM structure + other: solid-state NMR.

Consider “tail tube protein (TTP) gp17.1 of bacteriophage SPP1 (natural protein)”, for which the stoichiometry N was found to be 6.

The stoichiometry N is the number of molecules, sites or subunits per partner or assembly.
